Experimental data from US20140087995A1 (published 2014).
Numbered stars: 1 amine (or outer) side, 2 acyl side, 3 side chain; on linkers, the order of the positions; unused ones are H or OH. Bridge positions count the residues as written; N and C are the ends. Side chains are listed from the residue outwards. Ends that are not written are not given here. * marks the point of attachment. C20 diacid = O=C(O)CCCCCCCCCCCCCCCCCCC(=O)*; γGlu = O=C(O)[C@H](CCC(=O)[*:2])N[*:1]

T1: human calcitonin receptor (human, UniProt P30988 25-474)
T1 sequence (looked up): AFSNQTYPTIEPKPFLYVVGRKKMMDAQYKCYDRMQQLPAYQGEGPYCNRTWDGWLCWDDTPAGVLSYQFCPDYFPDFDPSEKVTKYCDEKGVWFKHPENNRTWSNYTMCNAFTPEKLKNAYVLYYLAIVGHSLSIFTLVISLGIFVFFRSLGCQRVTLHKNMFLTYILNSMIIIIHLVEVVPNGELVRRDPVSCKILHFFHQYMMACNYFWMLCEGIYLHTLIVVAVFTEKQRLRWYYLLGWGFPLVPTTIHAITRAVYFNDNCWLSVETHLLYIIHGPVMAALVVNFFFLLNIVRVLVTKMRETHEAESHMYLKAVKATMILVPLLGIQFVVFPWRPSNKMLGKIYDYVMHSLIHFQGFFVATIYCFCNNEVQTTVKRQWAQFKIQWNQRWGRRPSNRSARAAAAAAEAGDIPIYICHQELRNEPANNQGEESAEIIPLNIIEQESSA

T2: human amylin 3(a) receptor (human calcitonin receptor + RAMP-3) (human, UniProt P30988 25-474; O60896 24-148, limits assumed)
T2 sequence (looked up) 1: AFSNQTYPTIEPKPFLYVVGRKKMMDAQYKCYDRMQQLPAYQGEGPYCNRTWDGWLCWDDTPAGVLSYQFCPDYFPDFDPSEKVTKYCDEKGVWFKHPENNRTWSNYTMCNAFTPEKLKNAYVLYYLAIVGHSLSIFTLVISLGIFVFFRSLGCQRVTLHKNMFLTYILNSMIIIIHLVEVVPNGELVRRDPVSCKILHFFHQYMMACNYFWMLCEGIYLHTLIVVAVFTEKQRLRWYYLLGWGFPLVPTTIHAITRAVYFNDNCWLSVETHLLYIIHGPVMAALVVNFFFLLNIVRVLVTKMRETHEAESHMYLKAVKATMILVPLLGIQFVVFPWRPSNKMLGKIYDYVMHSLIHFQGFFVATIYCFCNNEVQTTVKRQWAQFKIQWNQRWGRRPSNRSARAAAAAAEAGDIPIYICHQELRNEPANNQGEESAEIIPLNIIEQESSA
T2 sequence (looked up) 2: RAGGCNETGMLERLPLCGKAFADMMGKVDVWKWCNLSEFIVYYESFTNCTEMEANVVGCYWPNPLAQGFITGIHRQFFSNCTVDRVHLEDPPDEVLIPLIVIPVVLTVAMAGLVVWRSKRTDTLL


Tests used:
[1] = biological target: T1, human calcitonin receptor; experiment: cell-based or functional assay
[2] = biological target: T2, human amylin 3(a) receptor (human …); experiment: cell-based or functional assay

Ratio hCT/hAmylin funct. [1]	hCTR funct. EC50 (pM) [1]	hAmylin-R funct. EC50 (pM) [2]	Binder
3.9	1120 pM	288 pM	K([γGlu-C20 diacid])CNTATCATQRLADFLRHSSPNFGAIPSSTNVGPETY-NH2 (disulfide 2-7; N-terminus assumed; SMILES CC[C@H](C)[C@H](NC(=O)[C@H](C)NC(=O)CNC(=O)[C@H](Cc1ccccc1)NC(=O)[C@H](CC(N)=O)NC(=O)[C@@H]1CCCN1C(=O)[C@H](CO)NC(=O)[C@H](CO)NC(=O)[C@H](Cc1c[nH]cn1)NC(=O)[C@H](CCCNC(=N)N)NC(=O)[C@H](CC(C)C)NC(=O)[C@H](Cc1ccccc1)NC(=O)[C@H](CC(=O)O)NC(=O)[C@H](C)NC(=O)[C@H](CC(C)C)NC(=O)[C@H](CCCNC(=N)N)NC(=O)[C@H](CCC(N)=O)NC(=O)[C@@H](NC(=O)[C@H](C)NC(=O)[C@@H]1CSSC[C@H](NC(=O)[C@@H](N)CCCCNC(=O)CC[C@H](NC(=O)CCCCCCCCCCCCCCCCCCC(=O)O)C(=O)O)C(=O)N[C@@H](CC(N)=O)C(=O)N[C@@H]([C@@H](C)O)C(=O)N[C@@H](C)C(=O)N[C@@H]([C@@H](C)O)C(=O)N1)[C@@H](C)O)C(=O)N1CCC[C@H]1C(=O)N[C@@H](CO)C(=O)N[C@@H](CO)C(=O)N[C@H](C(=O)N[C@@H](CC(N)=O)C(=O)N[C@H](C(=O)NCC(=O)N1CCC[C@H]1C(=O)N[C@@H](CCC(=O)O)C(=O)N[C@H](C(=O)N[C@@H](Cc1ccc(O)cc1)C(N)=O)[C@@H](C)O)C(C)C)[C@@H](C)O)
0.9	–	105 pM	K([γGlu-C20 diacid])CNTATCATQRLAEFLRHSSPNFGAIPSSTNVGPNTP-NH2 (disulfide 2-7; N-terminus assumed; SMILES CC[C@H](C)[C@H](NC(=O)[C@H](C)NC(=O)CNC(=O)[C@H](Cc1ccccc1)NC(=O)[C@H](CC(N)=O)NC(=O)[C@@H]1CCCN1C(=O)[C@H](CO)NC(=O)[C@H](CO)NC(=O)[C@H](Cc1c[nH]cn1)NC(=O)[C@H](CCCNC(=N)N)NC(=O)[C@H](CC(C)C)NC(=O)[C@H](Cc1ccccc1)NC(=O)[C@H](CCC(=O)O)NC(=O)[C@H](C)NC(=O)[C@H](CC(C)C)NC(=O)[C@H](CCCNC(=N)N)NC(=O)[C@H](CCC(N)=O)NC(=O)[C@@H](NC(=O)[C@H](C)NC(=O)[C@@H]1CSSC[C@H](NC(=O)[C@@H](N)CCCCNC(=O)CC[C@H](NC(=O)CCCCCCCCCCCCCCCCCCC(=O)O)C(=O)O)C(=O)N[C@@H](CC(N)=O)C(=O)N[C@@H]([C@@H](C)O)C(=O)N[C@@H](C)C(=O)N[C@@H]([C@@H](C)O)C(=O)N1)[C@@H](C)O)C(=O)N1CCC[C@H]1C(=O)N[C@@H](CO)C(=O)N[C@@H](CO)C(=O)N[C@H](C(=O)N[C@@H](CC(N)=O)C(=O)N[C@H](C(=O)NCC(=O)N1CCC[C@H]1C(=O)N[C@@H](CC(N)=O)C(=O)N[C@H](C(=O)N1CCC[C@H]1C(N)=O)[C@@H](C)O)C(C)C)[C@@H](C)O)
0.8	–	52 pM	K([γGlu-C20 diacid])CNTATCATQRLAHFLRHSSPNFGAIPSSTNVGPNTP-NH2 (disulfide 2-7; N-terminus assumed; SMILES CC[C@H](C)[C@H](NC(=O)[C@H](C)NC(=O)CNC(=O)[C@H](Cc1ccccc1)NC(=O)[C@H](CC(N)=O)NC(=O)[C@@H]1CCCN1C(=O)[C@H](CO)NC(=O)[C@H](CO)NC(=O)[C@H](Cc1c[nH]cn1)NC(=O)[C@H](CCCNC(=N)N)NC(=O)[C@H](CC(C)C)NC(=O)[C@H](Cc1ccccc1)NC(=O)[C@H](Cc1c[nH]cn1)NC(=O)[C@H](C)NC(=O)[C@H](CC(C)C)NC(=O)[C@H](CCCNC(=N)N)NC(=O)[C@H](CCC(N)=O)NC(=O)[C@@H](NC(=O)[C@H](C)NC(=O)[C@@H]1CSSC[C@H](NC(=O)[C@@H](N)CCCCNC(=O)CC[C@H](NC(=O)CCCCCCCCCCCCCCCCCCC(=O)O)C(=O)O)C(=O)N[C@@H](CC(N)=O)C(=O)N[C@@H]([C@@H](C)O)C(=O)N[C@@H](C)C(=O)N[C@@H]([C@@H](C)O)C(=O)N1)[C@@H](C)O)C(=O)N1CCC[C@H]1C(=O)N[C@@H](CO)C(=O)N[C@@H](CO)C(=O)N[C@H](C(=O)N[C@@H](CC(N)=O)C(=O)N[C@H](C(=O)NCC(=O)N1CCC[C@H]1C(=O)N[C@@H](CC(N)=O)C(=O)N[C@H](C(=O)N1CCC[C@H]1C(N)=O)[C@@H](C)O)C(C)C)[C@@H](C)O)
4.9	–	71 pM	K([γGlu-C20 diacid])CNTATCATQRLAHFLRHSSPNFGAIPSSTPVGPNTY-NH2 (disulfide 2-7; N-terminus assumed; SMILES CC[C@H](C)[C@H](NC(=O)[C@H](C)NC(=O)CNC(=O)[C@H](Cc1ccccc1)NC(=O)[C@H](CC(N)=O)NC(=O)[C@@H]1CCCN1C(=O)[C@H](CO)NC(=O)[C@H](CO)NC(=O)[C@H](Cc1c[nH]cn1)NC(=O)[C@H](CCCNC(=N)N)NC(=O)[C@H](CC(C)C)NC(=O)[C@H](Cc1ccccc1)NC(=O)[C@H](Cc1c[nH]cn1)NC(=O)[C@H](C)NC(=O)[C@H](CC(C)C)NC(=O)[C@H](CCCNC(=N)N)NC(=O)[C@H](CCC(N)=O)NC(=O)[C@@H](NC(=O)[C@H](C)NC(=O)[C@@H]1CSSC[C@H](NC(=O)[C@@H](N)CCCCNC(=O)CC[C@H](NC(=O)CCCCCCCCCCCCCCCCCCC(=O)O)C(=O)O)C(=O)N[C@@H](CC(N)=O)C(=O)N[C@@H]([C@@H](C)O)C(=O)N[C@@H](C)C(=O)N[C@@H]([C@@H](C)O)C(=O)N1)[C@@H](C)O)C(=O)N1CCC[C@H]1C(=O)N[C@@H](CO)C(=O)N[C@@H](CO)C(=O)N[C@H](C(=O)N1CCC[C@H]1C(=O)N[C@H](C(=O)NCC(=O)N1CCC[C@H]1C(=O)N[C@@H](CC(N)=O)C(=O)N[C@H](C(=O)N[C@@H](Cc1ccc(O)cc1)C(N)=O)[C@@H](C)O)C(C)C)[C@@H](C)O)
0.8	102 pM	132 pM	K([γGlu-γGlu-C20 diacid])CNTATCATQRLAEFLRHSSPNFGAIPSSTNVGPETP-NH2 (disulfide 2-7; N-terminus assumed; SMILES CC[C@H](C)[C@H](NC(=O)[C@H](C)NC(=O)CNC(=O)[C@H](Cc1ccccc1)NC(=O)[C@H](CC(N)=O)NC(=O)[C@@H]1CCCN1C(=O)[C@H](CO)NC(=O)[C@H](CO)NC(=O)[C@H](Cc1c[nH]cn1)NC(=O)[C@H](CCCNC(=N)N)NC(=O)[C@H](CC(C)C)NC(=O)[C@H](Cc1ccccc1)NC(=O)[C@H](CCC(=O)O)NC(=O)[C@H](C)NC(=O)[C@H](CC(C)C)NC(=O)[C@H](CCCNC(=N)N)NC(=O)[C@H](CCC(N)=O)NC(=O)[C@@H](NC(=O)[C@H](C)NC(=O)[C@@H]1CSSC[C@H](NC(=O)[C@@H](N)CCCCNC(=O)CC[C@H](NC(=O)CC[C@H](NC(=O)CCCCCCCCCCCCCCCCCCC(=O)O)C(=O)O)C(=O)O)C(=O)N[C@@H](CC(N)=O)C(=O)N[C@@H]([C@@H](C)O)C(=O)N[C@@H](C)C(=O)N[C@@H]([C@@H](C)O)C(=O)N1)[C@@H](C)O)C(=O)N1CCC[C@H]1C(=O)N[C@@H](CO)C(=O)N[C@@H](CO)C(=O)N[C@H](C(=O)N[C@@H](CC(N)=O)C(=O)N[C@H](C(=O)NCC(=O)N1CCC[C@H]1C(=O)N[C@@H](CCC(=O)O)C(=O)N[C@H](C(=O)N1CCC[C@H]1C(N)=O)[C@@H](C)O)C(C)C)[C@@H](C)O)
1.8	–	101 pM	K([γGlu-C20 diacid])CNTATCATQRLAEFLRHSSPNFGAIPSSTNVGSNTP-NH2 (disulfide 2-7; N-terminus assumed; SMILES CC[C@H](C)[C@H](NC(=O)[C@H](C)NC(=O)CNC(=O)[C@H](Cc1ccccc1)NC(=O)[C@H](CC(N)=O)NC(=O)[C@@H]1CCCN1C(=O)[C@H](CO)NC(=O)[C@H](CO)NC(=O)[C@H](Cc1c[nH]cn1)NC(=O)[C@H](CCCNC(=N)N)NC(=O)[C@H](CC(C)C)NC(=O)[C@H](Cc1ccccc1)NC(=O)[C@H](CCC(=O)O)NC(=O)[C@H](C)NC(=O)[C@H](CC(C)C)NC(=O)[C@H](CCCNC(=N)N)NC(=O)[C@H](CCC(N)=O)NC(=O)[C@@H](NC(=O)[C@H](C)NC(=O)[C@@H]1CSSC[C@H](NC(=O)[C@@H](N)CCCCNC(=O)CC[C@H](NC(=O)CCCCCCCCCCCCCCCCCCC(=O)O)C(=O)O)C(=O)N[C@@H](CC(N)=O)C(=O)N[C@@H]([C@@H](C)O)C(=O)N[C@@H](C)C(=O)N[C@@H]([C@@H](C)O)C(=O)N1)[C@@H](C)O)C(=O)N1CCC[C@H]1C(=O)N[C@@H](CO)C(=O)N[C@@H](CO)C(=O)N[C@H](C(=O)N[C@@H](CC(N)=O)C(=O)N[C@H](C(=O)NCC(=O)N[C@@H](CO)C(=O)N[C@@H](CC(N)=O)C(=O)N[C@H](C(=O)N1CCC[C@H]1C(N)=O)[C@@H](C)O)C(C)C)[C@@H](C)O, also called compound 12)
